Patent US20240247080A1, “GLP1/GIP/NPY2 RECEPTOR TRIPLE AGONISTS” (Boehringer Ingelheim International GmbH, priority 2022, published 2024)
Like-named read-outs stand apart in the source and are kept apart here. Starred links: 1 amine or outer side, 2 acyl side, 3 side chain; linkers in the order of their positions; H or OH if unused. Non-standard residues stand in square brackets, D forms with d. Groups on a side chain read outwards from the residue. No end group written: not given here. *: point of attachment. C20 diacid = O=C(O)CCCCCCCCCCCCCCCCCCC(=O)*; C18 diacid = O=C(O)CCCCCCCCCCCCCCCCC(=O)*; γGlu = O=C(O)[C@H](CCC(=O)[*:2])N[*:1]; εLys = N[C@@H](CCCCN[*:1])C(=O)[*:2]; β3hQ = NC(=O)CC[C@H](N)CC(=O)O; AEEA = NCCOCCOCC(=O)O; Aib = CC(C)(N)C(=O)O

T1: hGIPR (Homo sapiens, UniProt P48546)
T1 construct: expressed in transfected cells; host or cells: CHO cells carrying a CRE-luciferase reporter gene
T1 sequence (P48546 22-466): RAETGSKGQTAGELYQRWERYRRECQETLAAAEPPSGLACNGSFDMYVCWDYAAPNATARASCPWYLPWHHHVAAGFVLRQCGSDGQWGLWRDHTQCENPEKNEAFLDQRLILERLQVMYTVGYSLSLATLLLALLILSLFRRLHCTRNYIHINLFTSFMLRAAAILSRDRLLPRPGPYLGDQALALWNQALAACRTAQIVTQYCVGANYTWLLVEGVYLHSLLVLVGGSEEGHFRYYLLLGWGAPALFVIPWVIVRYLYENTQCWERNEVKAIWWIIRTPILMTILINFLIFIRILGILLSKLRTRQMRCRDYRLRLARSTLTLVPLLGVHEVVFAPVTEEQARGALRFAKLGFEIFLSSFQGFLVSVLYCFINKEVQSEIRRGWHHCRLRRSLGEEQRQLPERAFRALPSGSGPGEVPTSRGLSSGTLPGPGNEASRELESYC

T2: hNPY2R (Homo sapiens, UniProt P49146)
T2 construct: expressed in transfected cells; host or cells: HEK-293 cells carrying a CRE-luciferase reporter gene
T2 sequence (P49146 1-381): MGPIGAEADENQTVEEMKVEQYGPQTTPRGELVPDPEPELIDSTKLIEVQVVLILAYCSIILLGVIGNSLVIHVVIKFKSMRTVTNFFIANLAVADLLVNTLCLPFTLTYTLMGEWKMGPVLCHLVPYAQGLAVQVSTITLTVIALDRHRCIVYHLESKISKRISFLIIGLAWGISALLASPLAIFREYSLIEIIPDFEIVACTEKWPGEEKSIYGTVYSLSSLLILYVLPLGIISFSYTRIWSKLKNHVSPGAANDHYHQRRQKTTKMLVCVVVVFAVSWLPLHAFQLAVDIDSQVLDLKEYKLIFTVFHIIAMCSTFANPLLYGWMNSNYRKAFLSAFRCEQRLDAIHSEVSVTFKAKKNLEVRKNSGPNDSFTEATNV

T3: human GIP receptor (human, UniProt P48546 22-466)
T3 sequence (looked up): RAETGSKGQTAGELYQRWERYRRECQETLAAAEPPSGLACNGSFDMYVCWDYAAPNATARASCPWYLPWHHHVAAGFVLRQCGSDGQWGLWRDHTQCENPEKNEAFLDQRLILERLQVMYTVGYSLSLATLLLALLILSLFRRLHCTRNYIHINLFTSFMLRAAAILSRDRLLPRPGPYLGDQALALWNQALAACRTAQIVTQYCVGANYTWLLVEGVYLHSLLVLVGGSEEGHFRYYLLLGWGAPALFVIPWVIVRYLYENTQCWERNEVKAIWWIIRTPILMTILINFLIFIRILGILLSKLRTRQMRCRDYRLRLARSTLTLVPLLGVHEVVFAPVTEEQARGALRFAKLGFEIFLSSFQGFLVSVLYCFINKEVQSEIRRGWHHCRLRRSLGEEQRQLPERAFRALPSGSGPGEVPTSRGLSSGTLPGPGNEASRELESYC

T4: human neuropeptide Y2 receptor (human, UniProt P49146 1-381)
T4 sequence (looked up): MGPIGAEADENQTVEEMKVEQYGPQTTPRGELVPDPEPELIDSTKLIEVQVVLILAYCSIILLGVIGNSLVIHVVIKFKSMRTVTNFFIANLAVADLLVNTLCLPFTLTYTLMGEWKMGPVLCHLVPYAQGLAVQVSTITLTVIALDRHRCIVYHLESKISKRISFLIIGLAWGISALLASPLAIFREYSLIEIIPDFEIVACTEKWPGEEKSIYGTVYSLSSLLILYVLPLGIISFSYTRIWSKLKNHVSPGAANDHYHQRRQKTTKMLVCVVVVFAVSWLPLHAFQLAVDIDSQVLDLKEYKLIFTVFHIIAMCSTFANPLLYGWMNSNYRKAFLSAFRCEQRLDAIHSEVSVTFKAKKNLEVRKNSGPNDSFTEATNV

B1: Compound 170 (peptide)
peptide: YXEGTFTSDYSIXLEKQAQXAFVQWLIKGGPSSGASLRHYYNWLTRQRY
modifications: Aib at 2, 13, 20; K28 side chain: C18DA-gGlu-gGlu-gGlu-gGlu-gGlu-gGlu-eLys; C-terminal NH2
B2: Compound 90 (peptide)
peptide: YXEGTFTSDYSIXLEDQAQXAFVEWLIKGGPSSGASLRHYYNWLTRQRY
modifications: Aib at 2, 13, 20; K28 side chain: C20DA-gGlu-gGlu-gGlu-gGlu-gGlu-gGlu-eLys; C-terminal NH2

How the values were obtained:
hGLP1R = molecular target: T5, hGLP1R (Homo sapiens, UniProt P43220); experiment: hGLP1R CreLuc reporter gene assay in 0.5% and 100% plasma; type: cell-based; conditions: CreLuc reporter gene assay
T5 construct: expressed in transfected cells; host or cells: HEK-293 cells carrying a CRE-luciferase reporter gene
How it was run: (§1)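 HEK cells (GLP-1R, NPY2R) or CHO cells (GIPR) carrying a CRE-luciferase reporter, incubated 4 h at 37 °C with peptides in HBSS/20 mM HEPES pH 7.4 plus 0.5% human plasma, or in 100% plasma. Luminescence read; EC50 from 8-point variable-slope sigmoid fits.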

hGIPR = molecular target: T1, hGIPR; experiment: hGIPR CreLuc reporter gene assay in 0.5% and 100% plasma; type: cell-based; conditions: CreLuc reporter gene assay
How it was run: as §1

hNPY2R = molecular target: T2, hNPY2R; experiment: hNPY2R CreLuc reporter gene assay in 0.5% and 100% plasma; type: cell-based; conditions: CreLuc reporter gene assay
How it was run: as §1

human GLP-1 receptor = human GLP-1 receptor (human, UniProt P43220 24-463); experiment: cell-based or functional assay
human GIP receptor = molecular target: T3, human GIP receptor; experiment: cell-based or functional assay
[1] = molecular target: T4, human neuropeptide Y2 receptor; experiment: cell-based or functional assay
[2] = 0.5% human plasma, read-out: hGLP1R 0.5% hP
[3] = 0.5% human plasma, read-out: hGIPR 0.5% hP
[4] = 100% human plasma, read-out: hGIPR 100% hP

T5 sequence (P43220 24-463): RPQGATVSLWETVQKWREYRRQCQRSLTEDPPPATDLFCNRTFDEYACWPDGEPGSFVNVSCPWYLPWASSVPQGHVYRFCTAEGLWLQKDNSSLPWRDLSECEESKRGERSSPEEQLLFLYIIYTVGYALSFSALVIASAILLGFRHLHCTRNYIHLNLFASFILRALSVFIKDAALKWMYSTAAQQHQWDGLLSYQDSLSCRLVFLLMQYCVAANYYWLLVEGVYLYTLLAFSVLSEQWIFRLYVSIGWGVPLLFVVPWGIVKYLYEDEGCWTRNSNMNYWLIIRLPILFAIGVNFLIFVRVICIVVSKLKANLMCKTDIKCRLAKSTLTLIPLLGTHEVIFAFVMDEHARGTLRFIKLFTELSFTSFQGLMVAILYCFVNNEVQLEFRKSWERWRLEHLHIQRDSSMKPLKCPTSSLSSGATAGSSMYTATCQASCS

| EC50 (hGLP1R; [2]) | EC50 (hGIPR; [3]) | EC50 (hGIPR; [4]) | EC50 (hNPY2R; 0.5% human plasma, read-out: hNPY2R 0.5% hP) | EC50 (hGLP1R; 100% human plasma, read-out: hGLP1R 100% hP) | EC50 (hNPY2R; 100% human plasma, read-out: hNPY2R 100% hP) | EC50 CreLuc hGLP1R 0.5% hP (human GLP-1 receptor) | EC50 CreLuc hGLP1R 100% hP (human GLP-1 receptor) | EC50 CreLuc hGIPR 0.5% hP (human GIP receptor) | EC50 CreLuc hGIPR 100% hP (human GIP receptor) | EC50 CreLuc hNPY2R 0.5% hP [1] | EC50 CreLuc hNPY2R 100% hP [1] | Molecule |
| --- | --- | --- | --- | --- | --- | --- | --- | --- | --- | --- | --- | --- |
| 0.11 nM | 0.11 nM | 0.77 nM | > 99.9 nM |  |  |  |  |  |  |  |  | H-Y[Aib]EGTFTSDYSI[Aib]LEKQAQ[Aib]AFVQWLIK([εLys-γGlu-γGlu-γGlu-γGlu-γGlu-γGlu-C20 diacid])GGPSEGASLRHYYNWLTR[β3hQ]RY-NH2 [Compound 186, Y-Aib-E-G-T-F-T-S-D-Y-S-I-Aib-L-E-K-Q-A-Q-Aib-A-F-V-Q-W-L-I-K(1,3)-G-G-P-S-E-G-A-S-L-R-H-Y-Y-N-W-L-T-R-bHGln-R-Y-NH2.C20DA-gGlu-gGlu-gGlu-gGlu-gGlu-gGlu-eLys(1,2)] |
| 0.07 nM | 0.12 nM | 0.71 nM |  | 1.69 nM | 21.1 nM |  |  |  |  |  |  | H-Y[Aib]EGTFTSDYSI[Aib]LEKQAQ[Aib]AFVQWLIK([AEEA-AEEA-γGlu-γGlu-γGlu-γGlu-C18 diacid])GGPSEGASLRHYYNWLTRQRY-NH2 [Compound 270, Y-Aib-E-G-T-F-T-S-D-Y-S-I-Aib-L-E-K-Q-A-Q-Aib-A-F-V-Q-W-L-I-K(1,3)-GGPSEGASLRHYYNWLTRQRY-NH2.C18DA-gGlu-gGlu-gGlu-gGlu-OEG-OEG(1,2)] |
|  |  |  |  |  |  | 0.08 nM | 3.16 nM | 0.33 nM | 1.64 nM | 7.48 nM | 27.9 nM | Y[Aib]EGTFTSDYSI[Aib]LEKQAQ[Aib]AFVQWLIK([εLys-γGlu-γGlu-γGlu-Glu-γGlu-γGlu-γGlu-C20 diacid])GGPSSGASLRHYYNWLTRQRY-NH2 [Compound 92] |
|  |  |  |  |  |  | 1.12 nM | 7.18 nM | 0.53 nM | 1.58 nM | 20.4 nM | 45.4 nM | Y[Aib]EGTFTSDYSI[Aib]LEKQAQ[Aib]EFVEWLIK([εLys-γGlu-γGlu-γGlu-γGlu-γGlu-γGlu-γGlu-C20 diacid])GGPSSGASLRHYYNWLTRQRY-NH2 [Compound 88] |
|  |  |  |  |  |  | 0.13 nM | 7.3 nM | 0.26 nM | 3.15 nM | 10.3 nM | 50.3 nM | Y[Aib]EGTFTSDYSI[Aib]LEKQAQ[Aib]AFVQWLIK([εLys-γGlu-γGlu-γGlu-γGlu-γGlu-C20 diacid])GGPSEPASLRHYYNWLTRQRY-NH2 [Compound 169] |
|  |  |  |  |  |  | 0.09 nM | 0.98 nM | 0.24 nM | 1.15 nM | 19.2 nM | 33.2 nM | B1 |
|  |  |  |  |  |  | 0.3 nM | 5.39 nM | 1.03 nM | 6.75 nM | 18.4 nM | 71.9 nM | B2 |
